Measured values reported in the DeepSol protein solubility set.

Assay: soluble on expression in E. coli; label from the status in PepcDB or PDB records

Sequence | soluble on expression in E. coli
SNASYETSQHNLDAVEAVLSRLQKQTGEMAAYMVPVGYRALCVSQRESMQALRCSFVQGQSQPLLRGASSKVMLAYMPAARCEKILRYFGEDPTLDKWQSEFEKIRRHGYAVSTSEIDPGVSGISAPVMKGSKLIGAISVMAPAHRVESNKQRIILHVLQAARAL | soluble
SLDSIELMAKIHASARWSEAALQILADETRRILKHEAGTRAGEDPEQLHQMRVGIRRLRSALRLFEPALKLPKPARRRSLSPLAAVLGSVRDLDVQMEMLRERYLGALPEGEQQALERLLAHLESLRTQARSAMLRYLDGLDYEQFKSAYTEFLESPKFRRGADESLYHLLPAFLREALSTLWAHPGWEEPDVETMHDLRIAVKRVRYNLEFFLGCYGKAVRSLHGELKRIQEELGIIHDCDVLLGQLHTEPLGPATPWQQPFSRLTALVRNERRNAVRRFRRLKTRLLSEDMRNSLAVWVSWPGTADD | soluble
MLRTFRIGGIHPPENKLSAGKPVEVLPIPSQVVIPLGQHIGAPATATVKKGDEVKVGTIIAQAGGFVSANIHSSVSGKVLKIDNVYDSSGYPKPAVFISVEGDEWEEGIDRSPAIVKECNLDAKEIVAKISAAGIVGLGGATFPTHVKLSPPPGNKAEILIINAVECEPYLTSDHVLMLEHGEEIMIGVSILMKAIQVNKAVIGVENNKKDAIAHLTKLATAYPGIEVMPLKVQYPQGGEKQLIDAVIRKQVKSGALPISTGAVVQNVGTVFAVYEAVQKNKPLVERIVTVTGKKLSRPSNLLVRIGTPIAALIEAAGGLPENTGKIIGGGPMMGRALLSPDVPVTKGSSGVLILDREEAVRKPMRDCIRCAKCVGVCPMGLNPAFLMRDTLYKSWETAEKGNVVDCIECGSCSFTCPANRPLLDYIRQAKKTVMGIQRARKQLEHHHHHH | not soluble
MSDNAQLSGLCDRFRGFYPVVIDVETAGFNAKTDALLEIAAITLKMDEQGWLMPDMTLHFHVEPFAGANLQPEALAFNGIDPSNPLRGAVSEYEALHAIFKMVRKGIKDSGCSRAIMVAHNATFDHSFMMAAAERASLKRNPFHPFVTFDTAALSGLALGQTVLSKACLAAGMEFDGEKAHSALYDTERTAVLFCEIVNRWKRLGGWPLPLPTDK | not soluble
MIELEGVPELVDPVMVAAFEGWNDAGDAASTAVAHLDREWKGEVFAALDAEDYYDFQVNRPTVFMEDGVRKITWPTTRLSVVRVGGDKPRDLVLVRGIEPSMRWRSFCNELLGFAHELGVELVVVLGALLGDTPHTRPVPISGTTSDADLARRMDLEETKYEGPTGIVGILQEACTHAGVPAVSLWAAVPHYVSQPPNPKATLALLNRLEDLIGVRVPLGELPEDARAWQVGVDQLAAEDTEVAEYVQSLEEARDTA | soluble
MGSDKIHHHHHHCDETELDQTVTNQVNPQKEEDSRIVFNSAKEFYNTLDTLSYMTYEEQTEWIRASGIKYPLYKDLEFCEDEIMTEMPRAFQALFNHKMEMQINDTVIAFEKGNMYVKSIKEKILPVPVLYGQVGVNQEESEVTTRTVYETKYGKIGTSYQYEFKIPEGKSKYKYVHELKSVIIKENLPPYKSWSNLFLVLKLEWKGKKKWKVAEKEERNISIDLNVCKRNLAKVKYNQEIRIDVQNMDSKSHSINIEGYIIHEVVGIPSTKMFNGWSYPLVEWQPR | not soluble
MECRLGCGACCIAPSITSFIPGMPNGKPAGVRCVQLNEENLCKLFGKAERPKVCHQFSACPDVCGSTSEQAIQTITELESMTLLEHHHHHH | not soluble
TDAMSEEEIKIIINNSYNGGEINQTELAYMQNIFSFDERHAKDIMVPRTQMVTLNEPFNVDELLDTIKEHQFTRYPITEDGDKDHVKGFINVKEFLTEYASGKPIKIANYIHELPMISETTRISDALVRMQREHVHISLIIDEYGGTAGILTMEDILEEIVGEIRDEFDDDEVNDIVKLDDHTY | not soluble
HPICEVSKVASHLEVNCDKRNLTALPPDLPKDTTILHLSENLLYTFSLATLMPYTRLTQLNLDRAELTKLQVDGTLPVLGTLDLSHNQLQSLPLLGQTLPALTVLDVSFNRLTSLPLGALRGLGELQELYLKGNELKTLPPGLLTPTPKLEKLSLANNNLTELPAGLLNGLENLDTLLLQENSLYTIPKGFFGSHLLPFAFLHGNPWLCNCEILYFRRWLQDNAENVYVWKQGVDVKAMTSNVASVQCDNSDKFPVYKYPGKGCPTLGDEGDTDLYDYYPEEDTEGDKVR | soluble
MSLNQGEQLPGNYRVEIYLNGEKVDVGEFPFHRPESPEEKELVPCLTVDDLIHYGIKIDKSSSDTDNKKNQCFKWNSIEGLKVNYDFDSQRVQITVPQLYLQDKKSSLAPVSLWNEGVAAFRMVYQTNIDISKQNDNQSTTRNSRYGRFTPGFNLGAWRFRSSVTWSKELGQSERWQRGYMWFERGINAIKSRLTLGESYTSSEVFDSIPFRGGMLATDDAMTPPEDSYYTPVVHGIAQSEAQVIIKQNGQIIFTRSVPPGPFALDNLPTLAVGGELDVTVRESNGEEQYFSVPFQTPAIALHEGYFKYSVMGGNIKKKEGHHHHHH | not soluble
MKAYQRYRFPSLRSVARDASARDSAALAAEAQCADIDARIEEGFRQGREDGYRDGFEHGEAEGMKQGREAGFAAGAQQARDALRSEYAGIAKTLDAMRDAFVRVQAEYLAARRTELVDVVAKVAKQVIRCELTLQPSQMAALIEETLGTMPASSDAPEVHLSPDDHERLAGLLPERARHWRLVPDARLEAGECRVLLGGNEADAGCQHRLDACVERIGEQLPGAPDVEAAAT | not soluble
MLYSSNAILLTVICYELPLSERIRMLLRLEDLFDKIDFFSARDTSFEHHAVLVALFEILDVTSRSDLKSDLLQELDKQRTMLEGLRSNPEVSEKALDHILQDIRAAFRGLLDIPGRIGGHLRDDEWLMSVKQRMSIPGAACEFDLPAYHYWLNLAPEIRREDLKDWITPFTPIRSGINIVLNMLRNSGKNCCYTAVQGLFQQAGSEHQAHLLRLHISSEFPCVPEISANKYALNIRFVPWRSDHKTEVYEEDIPFELTFCSL | not soluble
MGSDKIHHHHHHMNHIGTREIATERLTLRRFEIEDAENMFYNWANDPEVTKYLTWPAHESVDTTETILKEWISKYDEKDFYQWAIELNDLEQPIGTISAIKTDERVESVEIGYCIGKRFWNNGYMTEALTAIIRFFINEVGAGRIWARHDTENPNSGKVMVAAGMDYEGTLRHAGFNNQGICDEAVYAKVRSAALDEEPEEETPEQQAVTTKVMGEDGVMRNVISDETMEYVGILAKLELSPEEAEAAKKDMADMLDYIDKLEELDTSGIEPMSHVFPVNNVFRDDVVTNGDGSEATLANAPVKKDGGFKVPKTIGE | not soluble
SLFPHISPCEVRVLMLLYSSKKKIFMGLIPYDQSGFVSAIRQVITTRKQAVGPGGVNSGPVQIVNNKFLAWSGVMEWQEPRPEPNSRSKRWLPSHVYVNQGEILRTEQWPRKLYMQLIPQQLLTTLVPLFRNSRLVQFHFTKDLETLKSLCRIMDNGFAGCVHFSYKASCEIRVLMLLYSSEKKIFIGLIPHDQGNFVNGIRRVIANQQQVLQRNLEQEQQQRGMGG | soluble
MKSKLKLHGFNNLTKTLSFNIYDICYAETPEDLQAYVQYIDEEYDAERLTQILTDVVDIIGANILNIARQDYDPQGASVTILISEQPVTPTDSQIEESPGPLPDTILAHLDKSHITVHTYPEIHPVDGIATFRVDIDVSTCGVISPLKALNYLIHQFDSDIVTVDYRVRGFTRDIEGRKHFIDHEINSIQNYLSDDTREAYQMTDVNVYQENLFHTKMLLKDFELENYLFGDATRTLSAEQREQVTERLKHEMLEIFYARNMPR | not soluble
MAELRETLERLASFRPQNYYVSTLYLRLMPEDRQDNKYLRVYKDLVKKKEKDLENLNLDKEVLDSIRGDIKNIQDFLSDPKNLYNCRGIAIFSCSKLGLFEYVKLPYVYRNRLMFSPDPLVREIAAIDEEFGRVAVLLLDRKHIRYFLMDITGIEEKLDFLEPMTTRAHRFHSGGALLKGAEGTFQYRMPARGAAPNVVQHGMGEWRFHMRLREEWHRILKLASDALFEEWKRIHFDKLIIGGFIEEGLREIENFLHPYVKEKLVGYIEITPEEATPHQVWEKALDLLWQKDREQEKEIIKELEELKGWGLAVNGTSEVLEMLAIGNVRTLILPEDFEKPGYLCPQSHLAFLKPECPLPEEKPIPVSDVVDEALEEALDQRATIEVIIDKELQKKVDGLAAFLRFKL | not soluble
EAEAISCGSPPPILNGRISYYSTPIAVGTVIRYSCSGTFRLIGEKSLLCITKDKVDGTWDKPAPKCQYFNKYSSCPEPIVPGGYKIRGSTPYRHGDSVTFACKTNFSMNGNKSVWCQANNMWGPTRLPTCVSVFPLEQKLIS | soluble
MSEAKDNGSRDEVLVPHKNCRKNTTVPGKKGEEKSLAPVFAEKLISPSRRGAKLKDRESHQENEDRNSELDQDEEDKESFCRGFPMSGCELETSCCVCHSTALGERFC | soluble
MADQKEASEAAKNREIKISSSDDEIFLVPRNVIRLSNTLNTLLVDLGLDDDEGTNAEPIPVQNVTASILKKVINWCTKHQSDPIPTEDSEKKTDGSIQDWDKKFLDIDQGTLFELILAANYLDIKGLLDVACQSVANMIKGKSPDEIRRAFNIKDDFTAEEREQIRKENAWCDD | soluble
VADFRYNVGLNLSAVKNKAVKFSGDGPIQTGGFNSDQIIRNEDGGLISRFYGYVADGIFQNWDEVYAHTNENGKLVQSNAQPGDIRFKDLNHDGVLDENDKTWIGNPYPDLMVGLNLGFSYKNIDFTANFYGTFGNDIFNKTKGLYSGVSGQNVWTGTLQKAWHGEGTSNDIPRLSYNDLNQNYTRVSSFFVEDGSYMRCKLLQVGYTLPKKWLNGTELRLSLSAQNPFTITSYSGMDPERPQIGKDGSVIETGIDGIAYPNPRTFLFGIDLKF | not soluble
HGGEAHMVPMDKTLKEFGADVQWDDYAQLFTLIKDGAYVKVKPGAQTAIVNGQPLALQVPVVMKDNKAWVSDTFINDVFQSGLDQTFQVEKRPHPLNALTADEIKQAVEIVKASADFKPNTRFTEISLLPPDKEAVWAFALENKPVDQPRKADVIMLDGKHIIEAVVDLQNNKLLSWQPIKDAHGMVLLDDFASVQNIINNSEEFAAAVKKRGITDAKKVITTPLTVGYFDGKDGLKQDARLLKVISYLDVGDGNYWAHPIENLVAVVDLEQKKIVKIEEGPVVPVPMTARPFDGRDRVAPAVKPMQIIEPEGKNYTITGDMIHWRNWDFHLSMNSRVGPMISTVTYNDNGTKRKVMYEGSLGGMIVPYGDPDIGWYFKAYLDSGDYGMGTLTSPIARGKDAPSNAVLLNETIADYTGVPMEIPRAIAVFERYAGPEYKHQEMGQPNVSTERRELVVRWISTVGNYDYIFDWIFHENGTIGIDAGATGIEAVKGVKAKTMHDETAKDDTRYGTLIDHNIVGTTHQHIYNFRLDLDVDGENNSLVAMDPVVKPNTAGGPRTSTMQVNQYNIGNEQDAAQKFDPGTIRLLSNPNKENRMGNPVSYQIIPYAGGTHPVAKGAQFAPDEWIYHRLSFMDKQLWVTRYHPGERFPEGKYPNRSTHDTGLGQYSKDNESLDNTDAVVWMTTGTTHVARAEEWPIMPTEWVHTLLKPWNFFDETPTLGALKKDK | soluble
